From US20240199757A1 (UNIVERSITY OF CHICAGO, published 2024)

T1: human NT5E expressed on MDA-MB-231 cells (human, UniProt P21589 27-549)
T1 sequence (looked up): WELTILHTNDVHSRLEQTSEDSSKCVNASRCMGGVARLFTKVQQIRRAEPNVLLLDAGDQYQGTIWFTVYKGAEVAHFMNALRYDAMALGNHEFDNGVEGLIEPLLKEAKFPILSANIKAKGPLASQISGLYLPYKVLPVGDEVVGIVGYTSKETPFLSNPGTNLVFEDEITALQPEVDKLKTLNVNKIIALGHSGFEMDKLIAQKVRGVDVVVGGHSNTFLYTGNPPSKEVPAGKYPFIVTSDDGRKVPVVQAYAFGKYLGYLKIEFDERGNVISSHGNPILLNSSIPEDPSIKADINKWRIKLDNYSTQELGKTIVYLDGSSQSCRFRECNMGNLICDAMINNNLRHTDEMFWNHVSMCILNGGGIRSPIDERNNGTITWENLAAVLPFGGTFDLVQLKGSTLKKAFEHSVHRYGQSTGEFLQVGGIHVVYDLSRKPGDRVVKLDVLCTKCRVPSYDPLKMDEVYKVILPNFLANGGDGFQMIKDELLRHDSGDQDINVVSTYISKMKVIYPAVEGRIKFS

T2: Full-length cynomolgus NT5E (recombinant) (cynomolgus, UniProt P21589 27-549 (human entry))
T2 construct: also called cNT5E; cyno NT5E
T2 chain: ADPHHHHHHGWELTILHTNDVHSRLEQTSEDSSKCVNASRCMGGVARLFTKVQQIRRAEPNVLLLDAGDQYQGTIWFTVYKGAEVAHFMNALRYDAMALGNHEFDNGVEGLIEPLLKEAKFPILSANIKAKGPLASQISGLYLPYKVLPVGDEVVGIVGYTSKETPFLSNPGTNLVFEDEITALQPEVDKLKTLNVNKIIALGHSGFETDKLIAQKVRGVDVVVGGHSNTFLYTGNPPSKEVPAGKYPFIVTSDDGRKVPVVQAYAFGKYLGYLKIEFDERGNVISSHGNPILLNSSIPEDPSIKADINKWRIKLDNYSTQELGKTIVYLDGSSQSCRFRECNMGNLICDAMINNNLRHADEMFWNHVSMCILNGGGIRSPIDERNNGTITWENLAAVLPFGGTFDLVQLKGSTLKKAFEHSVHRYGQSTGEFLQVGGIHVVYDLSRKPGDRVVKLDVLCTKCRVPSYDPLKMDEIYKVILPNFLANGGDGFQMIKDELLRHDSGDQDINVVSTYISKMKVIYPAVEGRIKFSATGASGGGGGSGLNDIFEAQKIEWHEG


Assays:
[1] = molecular target: T1, human NT5E expressed on MDA-MB-231 cells; assay: cell-based or functional assay
[2] = molecular target: T1, human NT5E expressed on MDA-MB-231 cells; assay: flow cytometry on MDA-MB-231 cells, 1 mM ATP
Description: Flow cytometry analysis of antibodies binding to human NT5E expressed on MDA-MB-231 cells in ATP-free condition (black) or in 1 mM ATP (red). Top panel: (left) 1780 Fab and (right) 1780 IgG titrations. […] Binding was measured at the indicated range of antibody concentrations and is expressed as mean±st. dev of median fluorescence intensity (MFI) of 1-2 replicates. Data were analyzed using OriginLab, and EC₅₀ values are shown next to the fitted curves.
Human MDA-MB-231 cells and murine 4T1 cells were grown to 90% confluency, detached with 5 mM EDTA for 15 min at 37° C. and then resuspended in 37° C. lx PBS (#10010031, Gibco) supplemented with 1% FBS and 1OpM ZnCl2. Separate working buffers (WB) of PBS and 1% FBS with or without fixed nucleotide concentrations were used throughout all washing steps to maintain constant condition. In 96-well plates (#3799, Costar), 0.2×10⁶ cells were added per well. The plates were spun at 500×g for 5 min and the supernatant was removed. Anti-NT5E antibodies were diluted to the desired concentration in 100 μL WB, added to the cells and the plates were incubated for 20 min at 37° C. Plates were spun and cells were washed twice with WB then spun a second time. Cells were stained with 100 μL of secondary antibody (Alexa Fluor 647 AffiniPure Goat Anti-Human IgG, F(ab′)2 fragment specific, #109-605-006, Jackson, 1:200) dilution and plates were incubated for 20 min at 37° C. Cells were washed twice with WB then fixed on ice with WB supplemented with 0.5% PFA. Fixing solution was removed by centrifugation and cells were resuspended in cold 1× PBS. Samples were analyzed by flow cytometry using CytoFLEX (Beckman Coulter) and mean fluorescence intensity (MFI) data was extracted using FlowJo software. Resulting binding data was plotted using OriginLab.

[3] = molecular target: T2, Full-length cynomolgus NT5E …; assay: ELISA, biotinylated NT5E on neutravidin plate, 1 mM ATP
Description: (B) Protein ELISA: Protein-based multipoint ELISA was performed to estimate the affinity of the generated Fabs and IgGs to NT5E. The binding of the Fabs and IgGs to the closed form of NT5E were determined in ELISA buffer (HBST) supplemented with 10 μM zinc chloride and 1 mM ATP while the binding of the same to open form of NT5E were determined in ELISA buffer (HBST) without any cofactors. A fixed concentration of the immobilized target (50 nM) on ELISA plate was incubated with 3-fold serial dilutions of the purified Fabs and IgGs starting from 3 μM and 1 μM respectively for 15 min. The plates were washed and were subsequently incubated with a secondary HRP-conjugated anti-protein L monoclonal antibody (#32420, ThermoFisher, 1:6000 dilution). As with phage ELISA, the plates were again washed, developed with TMB substrate and quenched with 1.0 M HCl, and absorbance (Abs450) was determined. To determine the affinity (EC50), the data were fitted with a non-linear, 4-parameter logistic curve in OriginLab.

Binder	IC50 of NT5E phosphate production on MDA-MB-231 cells, +500 µM ATP [1] [nM]	EC50 [2] [nM]	EC50 [3] [nM]
1789 Fab (Fab, V domains shown) VH: EVQLVESGGGLVQPGGSLRLSCAASGFNVSYSSIHWVRQAPGKGLEWVASISSSSGYTYYADSVKGRFTISADTSKNTAYLQMNSLRAEDTAVYYCARNYWGWYPFYYFAFDYWGQGTLVTV VL: DIQMTQSPSSLSASVGDRVTITCRASQSVSSAVAWYQQKPGKAPKLLIYSASSLYSGVPSRFSGSRSGTDFTLTISSLQPEDFATYYCQQGWDYPITFGQGTKVEIKR	122	53	28
1789 IgG (antibody, V domains shown) VH: EVQLVESGGGLVQPGGSLRLSCAASGFNVSYSSIHWVRQAPGKGLEWVASISSSSGYTYYADSVKGRFTISADTSKNTAYLQMNSLRAEDTAVYYCARNYWGWYPFYYFAFDYWGQGTLVTVSS VL: DIQMTQSPSSLSASVGDRVTITCRASQSVSSAVAWYQQKPGKAPKLLIYSASSLYSGVPSRFSGSRSGTDFTLTISSLQPEDFATYYCQQGWDYPITFGQGTKVEIKR	2.2	9.4	0.57
